In assay [1] the target is T1, Human ILT3 (LILRB4) extracellular domain with C-terminal His Tag (human, UniProt Q8NHJ6 22-259).
T1 construct: the claims count residues 1-238 as the extracellular domain; also called human ILT3-His; ILT3_H
Kind of assay: SPR (Biacore), human ILT3-His. As to the method:
(§1) The binding kinetics and affinities of anti-human ILT3 clones for human or rhesus ILT3-His tagged recombinant protein were measured by surface plasmon resonance using a Biacore™ T200 system (GE Healthcare, Piscataway, NJ). HBS-EP+ buffer (BR-1006-69) was used as the running buffer. Anti-human Fc antibody (Human Fc Capture Kit, BR100839, GE Healthcare) was immobilized via amine coupling chemistry in all four flow cells on a Series S CM5 sensor chip (BR100530 or 29149603, GE Healthcare) following manufacturer instructions. Flow cell 1 was used as reference for background subtraction and was not used for capture. […] Following each injection cycle, all four flow cells were regenerated using 30 second injection of 3M MgCl₂ solution at a flow rate of 10 μL/minute. Reference subtracted sensorgrams were fit to a 1:1 Langmuir Binding Model in the Biacore™ T200 Evaluation Software (Version 2.0) to determine the association (ka) and dissociation (kd) rate constants and the equilibrium dissociation constant KD (=kd/ka).
For orientation: SPR reads the build-up and loss of mass on a sensor chip optically.

Assay [2] deals with T2, rhesus ILT3-His tagged recombinant protein (rhesus monkey (Macaca mulatta)).
T2 construct: also called ILT3_MM; not shown: His tag
T2 chain: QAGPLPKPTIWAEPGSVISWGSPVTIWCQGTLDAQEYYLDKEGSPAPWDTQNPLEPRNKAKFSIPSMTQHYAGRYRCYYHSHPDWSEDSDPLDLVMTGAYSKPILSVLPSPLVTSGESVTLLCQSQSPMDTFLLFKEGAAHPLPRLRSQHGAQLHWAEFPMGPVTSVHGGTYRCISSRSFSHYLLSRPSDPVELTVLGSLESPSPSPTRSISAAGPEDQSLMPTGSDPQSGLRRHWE
Kind of assay: SPR (Biacore), rhesus ILT3-His. As to the method:
as §1

For orientation: Kd means the free concentration of one partner at which half of the binding sites on the other are occupied at equilibrium, for simple one-to-one binding.

B1: Humanized anti-ILT3 mAb (52B8 VH1 M64V W101Y/VL5 S35A) IgG4 S228P/Kappa (antibody, V domains shown)
VH: EVQLVESGGGLVQPGGSLRLSCAASGFTFSNYGMSWVRQAPGKGLEWVATISGGGDYTNYPDSVRGRFTISRDNAKNSLYLQMNSLRAEDTAVYYCGRRLYFRSLYYAMDYWGQGTLVTVSS
VL: DIQLTQSPSSLSASVGDRVTITCRASEKVDSFGNAFMHWYQQKPGKAPKLLIYLTSNLDSGVPSRFSGSGSGTDFTLTISSLQPEDFATYYCQQNNEDPYTFGQGTKLEIKR
notes: also called mAb 55
Consider B1, for which the binding result in assay [1] and in assay [2] was “no binding (tested: ILT3-His injected up to 20 nM)” throughout.

B2: Humanized anti-ILT3 mAb (52B8 VH1/VL3) IgG4 S228P/Kappa (antibody, V domains shown)
VH: EVQLVESGGGLVQPGGSLRLSCAASGFTFSNYGMSWVRQAPGKGLEWVATISGGGDYTNYPDSMRGRFTISRDNAKNSLYLQMNSLRAEDTAVYYCGRRLWFRSLYYAMDYWGQGTLVTVSS
VL: EIVLTQSPATLSLSPGERATLSCRASEKVDSFGNSFMHWYQQKPGQAPRLLIYLTSNLDSGVPARFSGSGSRTDFTLTISSLEPEDFAVYYCQQNNEDPYTFGQGTKLEIKR
notes: also called mAb 3
Consider B2, for which the figures for the Kd in assay [1] and in assay [2] were 1.1 nM and 26 nM, respectively.

B3: Humanized anti-ILT3 mAb (52B8 VH2 M64L/VL3) IgG4 S228P/Kappa (antibody, V domains shown)
VH: EVQLVESGGGLVQPGGSLRLSCAASGFTFSNYGMSWVRQAPGKGLEWVATISGGGDYTNYPDSLRGRFTISRDNAKNSLYLQMNSLKAEDTAVYYCGRRLWFRSLYYAMDYWGQGTLVTVSS
VL: EIVLTQSPATLSLSPGERATLSCRASEKVDSFGNSFMHWYQQKPGQAPRLLIYLTSNLDSGVPARFSGSGSRTDFTLTISSLEPEDFAVYYCQQNNEDPYTFGQGTKLEIKR
notes: also called mAb 23
As to B3, the Kd in assay [1] stood at 0.96 nM; in assay [2], 24 nM.

B4: Humanized anti-ILT3 mAb (52B8 VH1 M64V/VL5 S35A) IgG4 S228P/Kappa (antibody, V domains shown)
VH: EVQLVESGGGLVQPGGSLRLSCAASGFTFSNYGMSWVRQAPGKGLEWVATISGGGDYTNYPDSVRGRFTISRDNAKNSLYLQMNSLRAEDTAVYYCGRRLWFRSLYYAMDYWGQGTLVTVSS
VL: DIQLTQSPSSLSASVGDRVTITCRASEKVDSFGNAFMHWYQQKPGKAPKLLIYLTSNLDSGVPSRFSGSGSGTDFTLTISSLQPEDFATYYCQQNNEDPYTFGQGTKLEIKR
notes: also called mAb 44
Consider B4, for which the Kd turned out to be 2.6 nM in assay [1] and 34 nM in assay [2].

B5: Humanized anti-ILT3 mAb (52B8 VH2 M64V/VL4) IgG4 S228P/Kappa (antibody, V domains shown)
VH: EVQLVESGGGLVQPGGSLRLSCAASGFTFSNYGMSWVRQAPGKGLEWVATISGGGDYTNYPDSVRGRFTISRDNAKNSLYLQMNSLKAEDTAVYYCGRRLWFRSLYYAMDYWGQGTLVTVSS
VL: EIVLTQSPATLSLSPGERATLSCRASEKVDSFGNSFMHWYQQKPGQAPRLLIYLTSNLDSGIPARFSGSGSGTDFTLTISSLEPEDFAVYYCQQNNEDPYTFGQGTKLEIKR
notes: also called mAb 16
B5: the Kd in assay [1] is 1.4 nM; in assay [2] it was 29 nM.

B6: Humanized anti-ILT3 mAb (52B8 VH1 M64V/VL4) IgG4 S228P/Kappa (antibody, V domains shown)
VH: EVQLVESGGGLVQPGGSLRLSCAASGFTFSNYGMSWVRQAPGKGLEWVATISGGGDYTNYPDSVRGRFTISRDNAKNSLYLQMNSLRAEDTAVYYCGRRLWFRSLYYAMDYWGQGTLVTVSS
VL: EIVLTQSPATLSLSPGERATLSCRASEKVDSFGNSFMHWYQQKPGQAPRLLIYLTSNLDSGIPARFSGSGSGTDFTLTISSLEPEDFAVYYCQQNNEDPYTFGQGTKLEIKR
notes: also called mAb 12
Regarding B6, the values for the Kd in assay [1] and in assay [2] were 1.5 nM and 29 nM, respectively.

B7: Humanized anti-ILT3 mAb (52B8 VH1 M64V/VL5 S35N) IgG4 S228P/Kappa (antibody, V domains shown)
VH: EVQLVESGGGLVQPGGSLRLSCAASGFTFSNYGMSWVRQAPGKGLEWVATISGGGDYTNYPDSVRGRFTISRDNAKNSLYLQMNSLRAEDTAVYYCGRRLWFRSLYYAMDYWGQGTLVTVSS
VL: DIQLTQSPSSLSASVGDRVTITCRASEKVDSFGNNFMHWYQQKPGKAPKLLIYLTSNLDSGVPSRFSGSGSGTDFTLTISSLQPEDFATYYCQQNNEDPYTFGQGTKLEIKR
notes: also called mAb 45
B7 displayed a Kd in assay [1] of 4.7 nM. Moreover, the binding result in assay [2] is “no binding (tested: ILT3-His injected up to 20 nM)”.

B8: Humanized anti-ILT3 mAb (52B8 VH2/VL3) IgG4 S228P/Kappa (antibody, V domains shown)
VH: EVQLVESGGGLVQPGGSLRLSCAASGFTFSNYGMSWVRQAPGKGLEWVATISGGGDYTNYPDSMRGRFTISRDNAKNSLYLQMNSLKAEDTAVYYCGRRLWFRSLYYAMDYWGQGTLVTVSS
VL: EIVLTQSPATLSLSPGERATLSCRASEKVDSFGNSFMHWYQQKPGQAPRLLIYLTSNLDSGVPARFSGSGSRTDFTLTISSLEPEDFAVYYCQQNNEDPYTFGQGTKLEIKR
notes: also called mAb 7
As to B8, the values for the Kd in assay [1] and in assay [2] were 0.96 nM and 26 nM, respectively.

B9: Humanized anti-ILT3 mAb (52B8 VH1 M64L/VL3) IgG4 S228P/Kappa (antibody, V domains shown)
VH: EVQLVESGGGLVQPGGSLRLSCAASGFTFSNYGMSWVRQAPGKGLEWVATISGGGDYTNYPDSLRGRFTISRDNAKNSLYLQMNSLRAEDTAVYYCGRRLWFRSLYYAMDYWGQGTLVTVSS
VL: EIVLTQSPATLSLSPGERATLSCRASEKVDSFGNSFMHWYQQKPGQAPRLLIYLTSNLDSGVPARFSGSGSRTDFTLTISSLEPEDFAVYYCQQNNEDPYTFGQGTKLEIKR
notes: also called mAb 19
As to B9, the values for the Kd in assay [1] and in assay [2] were 0.99 nM and 26 nM, respectively.

B10: Humanized anti-ILT3 mAb (52B8 VH1 M64V/VL3) IgG4 S228P/Kappa (antibody, V domains shown)
VH: EVQLVESGGGLVQPGGSLRLSCAASGFTFSNYGMSWVRQAPGKGLEWVATISGGGDYTNYPDSVRGRFTISRDNAKNSLYLQMNSLRAEDTAVYYCGRRLWFRSLYYAMDYWGQGTLVTVSS
VL: EIVLTQSPATLSLSPGERATLSCRASEKVDSFGNSFMHWYQQKPGQAPRLLIYLTSNLDSGVPARFSGSGSRTDFTLTISSLEPEDFAVYYCQQNNEDPYTFGQGTKLEIKR
notes: also called mAb 11
With B10, the Kd in assay [1] was determined as 1.1 nM; in assay [2] it was 27 nM.

B11: Humanized anti-ILT3 mAb (52B8 VH2 M64V/VL3) IgG4 S228P/Kappa (antibody, V domains shown)
VH: EVQLVESGGGLVQPGGSLRLSCAASGFTFSNYGMSWVRQAPGKGLEWVATISGGGDYTNYPDSVRGRFTISRDNAKNSLYLQMNSLKAEDTAVYYCGRRLWFRSLYYAMDYWGQGTLVTVSS
VL: EIVLTQSPATLSLSPGERATLSCRASEKVDSFGNSFMHWYQQKPGQAPRLLIYLTSNLDSGVPARFSGSGSRTDFTLTISSLEPEDFAVYYCQQNNEDPYTFGQGTKLEIKR
notes: also called mAb 15
Turning to B11, the Kd was determined as 1 nM in assay [1] and 26 nM in assay [2].

B12: Humanized anti-ILT3 mAb (52B8 VH1 M64V W101Y/VL5 S35N) IgG4 S228P/Kappa (antibody, V domains shown)
VH: EVQLVESGGGLVQPGGSLRLSCAASGFTFSNYGMSWVRQAPGKGLEWVATISGGGDYTNYPDSVRGRFTISRDNAKNSLYLQMNSLRAEDTAVYYCGRRLYFRSLYYAMDYWGQGTLVTVSS
VL: DIQLTQSPSSLSASVGDRVTITCRASEKVDSFGNNFMHWYQQKPGKAPKLLIYLTSNLDSGVPSRFSGSGSGTDFTLTISSLQPEDFATYYCQQNNEDPYTFGQGTKLEIKR
notes: also called mAb 56
B12: the binding result in assay [1] and in assay [2] was “no binding (tested: ILT3-His injected up to 20 nM)” throughout.

B13: Humanized anti-ILT3 mAb (52B8 VH1 M64L/VL4) IgG4 S228P/Kappa (antibody, V domains shown)
VH: EVQLVESGGGLVQPGGSLRLSCAASGFTFSNYGMSWVRQAPGKGLEWVATISGGGDYTNYPDSLRGRFTISRDNAKNSLYLQMNSLRAEDTAVYYCGRRLWFRSLYYAMDYWGQGTLVTVSS
VL: EIVLTQSPATLSLSPGERATLSCRASEKVDSFGNSFMHWYQQKPGQAPRLLIYLTSNLDSGIPARFSGSGSGTDFTLTISSLEPEDFAVYYCQQNNEDPYTFGQGTKLEIKR
notes: also called mAb 20
On to B13, for which the Kd in assay [1] is 1.3 nM; in assay [2] it was 29 nM.

B14: Humanized anti-ILT3 mAb (52B8 VH2 M64L/VL4) IgG4 S228P/Kappa (antibody, V domains shown)
VH: EVQLVESGGGLVQPGGSLRLSCAASGFTFSNYGMSWVRQAPGKGLEWVATISGGGDYTNYPDSLRGRFTISRDNAKNSLYLQMNSLKAEDTAVYYCGRRLWFRSLYYAMDYWGQGTLVTVSS
VL: EIVLTQSPATLSLSPGERATLSCRASEKVDSFGNSFMHWYQQKPGQAPRLLIYLTSNLDSGIPARFSGSGSGTDFTLTISSLEPEDFAVYYCQQNNEDPYTFGQGTKLEIKR
notes: also called mAb 24
As for B14, the Kd is 1.2 nM in assay [1] and 27 nM in assay [2].

B15: Humanized anti-ILT3 mAb (52B8 VH1/VL4) IgG4 S228P/Kappa (antibody, V domains shown)
VH: EVQLVESGGGLVQPGGSLRLSCAASGFTFSNYGMSWVRQAPGKGLEWVATISGGGDYTNYPDSMRGRFTISRDNAKNSLYLQMNSLRAEDTAVYYCGRRLWFRSLYYAMDYWGQGTLVTVSS
VL: EIVLTQSPATLSLSPGERATLSCRASEKVDSFGNSFMHWYQQKPGQAPRLLIYLTSNLDSGIPARFSGSGSGTDFTLTISSLEPEDFAVYYCQQNNEDPYTFGQGTKLEIKR
notes: also called mAb 4
For B15, the Kd in assay [1] was 1.4 nM; in assay [2], 29 nM.

B16: Humanized anti-ILT3 mAb (52B8 VH2/VL4) IgG4 S228P/Kappa (antibody, V domains shown)
VH: EVQLVESGGGLVQPGGSLRLSCAASGFTFSNYGMSWVRQAPGKGLEWVATISGGGDYTNYPDSMRGRFTISRDNAKNSLYLQMNSLKAEDTAVYYCGRRLWFRSLYYAMDYWGQGTLVTVSS
VL: EIVLTQSPATLSLSPGERATLSCRASEKVDSFGNSFMHWYQQKPGQAPRLLIYLTSNLDSGIPARFSGSGSGTDFTLTISSLEPEDFAVYYCQQNNEDPYTFGQGTKLEIKR
notes: also called mAb 8
Take B16: the Kd in assay [1] was determined as 1.3 nM; in assay [2], 27 nM.

B17: Humanized anti-ILT3 mAb (52B8 VH1 M64V/VL5 N34D) IgG4 S228P/Kappa (antibody, V domains shown)
VH: EVQLVESGGGLVQPGGSLRLSCAASGFTFSNYGMSWVRQAPGKGLEWVATISGGGDYTNYPDSVRGRFTISRDNAKNSLYLQMNSLRAEDTAVYYCGRRLWFRSLYYAMDYWGQGTLVTVSS
VL: DIQLTQSPSSLSASVGDRVTITCRASEKVDSFGDSFMHWYQQKPGKAPKLLIYLTSNLDSGVPSRFSGSGSGTDFTLTISSLQPEDFATYYCQQNNEDPYTFGQGTKLEIKR
notes: also called mAb 47
Regarding B17, the Kd was 3.8 nM in assay [1] and 115 nM in assay [2].

The record behind these values is patent US20260167718A1 (Merck Sharp & Dohme, published 2026).
